Read-outs that look alike come from different tables or passages of the source.
Columns and labels:
thebaine = experiment: Whole cell biotransformation of thebaine to oripavine by E. coli cells expressing CODM variants; format: cell-based; conditions: for average thebaine to oripavine yield: FIG. 5; for oripavine yield improved relative to WT CODM: oripavine yield assayed after 4 hours
codeine = experiment: Whole cell biotransformation of codeine to morphine by E. coli cells expressing CODM variants; format: cell-based; conditions: for average codeine to morphine yield: FIG. 5, morphine assayed after 30 minutes per legend; for morphine yield improved relative to WT CODM: morphine yield assayed after 30 minutes; for speed of biotransformation with codeine as substrate (in words): time course over two hours
[1] = morphine after 30 minutes, oripavine after 4 hours

B1: 17M: codeine 3-O-demethylase with amino acid substitution I7M (protein, listed as Papaver somniferum)
chain: METPILMKLGNGLSIPSVQELAKLTLAEIPSRYTCTGESPLNNIGASVTDDETVPVIDLQNLLSPEPVVGKLELDKLHSACKEWGFFQLVNHGVDALLMDNIKSEIKGFFNLPMNEKTKYGQQDGDFEGFGQPYIESEDQRLDWTEVFSMLSLPLHLRKPHLFPELPLPFRETLESYLSKMKKLSTVVFEMLEKSLQLVEIKGMTDLFEDGLQTMRMNYYPPCPRPELVLGLTSHSDFSGLTILLQLNEVEGLQIRKEERWISIKPLPDAFIVNVGDILEIMTNGIYRSVEHRAVVNSTKERLSIATFHDSKLESEIGPISSLVTPETPALFKRGRYEDILKENLSRKLDGKSFLDYMRM
average thebaine to oripavine yield (thebaine; after 4 hours): 6% | average codeine to morphine yield (codeine): 32%

B2: M360I: codeine 3-O-demethylase with amino acid substitution M360I (protein, listed as Papaver somniferum)
chain: METPILIKLGNGLSIPSVQELAKLTLAEIPSRYTCTGESPLNNIGASVTDDETVPVIDLQNLLSPEPVVGKLELDKLHSACKEWGFFQLVNHGVDALLMDNIKSEIKGFFNLPMNEKTKYGQQDGDFEGFGQPYIESEDQRLDWTEVFSMLSLPLHLRKPHLFPELPLPFRETLESYLSKMKKLSTVVFEMLEKSLQLVEIKGMTDLFEDGLQTMRMNYYPPCPRPELVLGLTSHSDFSGLTILLQLNEVEGLQIRKEERWISIKPLPDAFIVNVGDILEIMTNGIYRSVEHRAVVNSTKERLSIATFHDSKLESEIGPISSLVTPETPALFKRGRYEDILKENLSRKLDGKSFLDYMRI
oripavine yield improved relative to WT CODM (thebaine): ~33% | morphine yield improved relative to WT CODM (codeine): ~29% | speed of biotransformation with codeine as substrate (in words) (codeine): faster than the WT CODM control but not as fast as the other two mutant strains

B3: E259G+R260K: codeine 3-O-demethylase with amino acid substitutions E259G and R260K (protein, listed as Papaver somniferum)
chain: METPILIKLGNGLSIPSVQELAKLTLAEIPSRYTCTGESPLNNIGASVTDDETVPVIDLQNLLSPEPVVGKLELDKLHSACKEWGFFQLVNHGVDALLMDNIKSEIKGFFNLPMNEKTKYGQQDGDFEGFGQPYIESEDQRLDWTEVFSMLSLPLHLRKPHLFPELPLPFRETLESYLSKMKKLSTVVFEMLEKSLQLVEIKGMTDLFEDGLQTMRMNYYPPCPRPELVLGLTSHSDFSGLTILLQLNEVEGLQIRKEGKWISIKPLPDAFIVNVGDILEIMTNGIYRSVEHRAVVNSTKERLSIATFHDSKLESEIGPISSLVTPETPALFKRGRYEDILKENLSRKLDGKSFLDYMRM
product yield / performance compared to WT CODM strain (in words) (thebaine): improved compared to the WT CODM stain

B4: E259D+R260K: codeine 3-O-demethylase with amino acid substitutions E259D and R260K (protein, listed as Papaver somniferum)
chain: METPILIKLGNGLSIPSVQELAKLTLAEIPSRYTCTGESPLNNIGASVTDDETVPVIDLQNLLSPEPVVGKLELDKLHSACKEWGFFQLVNHGVDALLMDNIKSEIKGFFNLPMNEKTKYGQQDGDFEGFGQPYIESEDQRLDWTEVFSMLSLPLHLRKPHLFPELPLPFRETLESYLSKMKKLSTVVFEMLEKSLQLVEIKGMTDLFEDGLQTMRMNYYPPCPRPELVLGLTSHSDFSGLTILLQLNEVEGLQIRKEDKWISIKPLPDAFIVNVGDILEIMTNGIYRSVEHRAVVNSTKERLSIATFHDSKLESEIGPISSLVTPETPALFKRGRYEDILKENLSRKLDGKSFLDYMRM
product yield / performance compared to WT CODM strain (in words) (thebaine; [1]): improved compared to the WT CODM stain

B5: P4A: codeine 3-O-demethylase with amino acid substitution P4A (protein, listed as Papaver somniferum)
chain: METAILIKLGNGLSIPSVQELAKLTLAEIPSRYTCTGESPLNNIGASVTDDETVPVIDLQNLLSPEPVVGKLELDKLHSACKEWGFFQLVNHGVDALLMDNIKSEIKGFFNLPMNEKTKYGQQDGDFEGFGQPYIESEDQRLDWTEVFSMLSLPLHLRKPHLFPELPLPFRETLESYLSKMKKLSTVVFEMLEKSLQLVEIKGMTDLFEDGLQTMRMNYYPPCPRPELVLGLTSHSDFSGLTILLQLNEVEGLQIRKEERWISIKPLPDAFIVNVGDILEIMTNGIYRSVEHRAVVNSTKERLSIATFHDSKLESEIGPISSLVTPETPALFKRGRYEDILKENLSRKLDGKSFLDYMRM
product yield / performance compared to WT CODM strain (in words) (thebaine; [1]): minor improvement in product yield

B6: WT CODM: wild type codeine 3-O-demethylase (UniProtKB: D4N502), N-terminally fused to 6H and MBP, expressed in E. coli (protein, UniProt D4N502 1-360, looked up)
Codeine O-demethylase: METPILIKLGNGLSIPSVQELAKLTLAEIPSRYTCTGESPLNNIGASVTDDETVPVIDLQNLLSPEPVVGKLELDKLHSACKEWGFFQLVNHGVDALLMDNIKSEIKGFFNLPMNEKTKYGQQDGDFEGFGQPYIESEDQRLDWTEVFSMLSLPLHLRKPHLFPELPLPFRETLESYLSKMKKLSTVVFEMLEKSLQLVEIKGMTDLFEDGLQTMRMNYYPPCPRPELVLGLTSHSDFSGLTILLQLNEVEGLQIRKEERWISIKPLPDAFIVNVGDILEIMTNGIYRSVEHRAVVNSTKERLSIATFHDSKLESEIGPISSLVTPETPALFKRGRYEDILKENLSRKLDGKSFLDYMRM
modifications: N-terminal His6-MBP fusion
notes: wild type codeine 3-O-demethylase (UniProtKB: D4N502), N-terminally fused to 6H and MBP, expressed in E. coli
average thebaine to oripavine yield (thebaine; after 4 hours): 47% | average codeine to morphine yield (codeine): 47%

B7: R260T: codeine 3-O-demethylase with amino acid substitution R260T (protein, listed as Papaver somniferum)
chain: METPILIKLGNGLSIPSVQELAKLTLAEIPSRYTCTGESPLNNIGASVTDDETVPVIDLQNLLSPEPVVGKLELDKLHSACKEWGFFQLVNHGVDALLMDNIKSEIKGFFNLPMNEKTKYGQQDGDFEGFGQPYIESEDQRLDWTEVFSMLSLPLHLRKPHLFPELPLPFRETLESYLSKMKKLSTVVFEMLEKSLQLVEIKGMTDLFEDGLQTMRMNYYPPCPRPELVLGLTSHSDFSGLTILLQLNEVEGLQIRKEETWISIKPLPDAFIVNVGDILEIMTNGIYRSVEHRAVVNSTKERLSIATFHDSKLESEIGPISSLVTPETPALFKRGRYEDILKENLSRKLDGKSFLDYMRM
less oripavine generated than WT CODM (thebaine; after 4 hours): ~29% | less morphine generated than WT CODM (codeine; after 30 minutes): ~28%

B8: 15K: codeine 3-O-demethylase with amino acid substitution I5K (protein, listed as Papaver somniferum)
chain: METPKLIKLGNGLSIPSVQELAKLTLAEIPSRYTCTGESPLNNIGASVTDDETVPVIDLQNLLSPEPVVGKLELDKLHSACKEWGFFQLVNHGVDALLMDNIKSEIKGFFNLPMNEKTKYGQQDGDFEGFGQPYIESEDQRLDWTEVFSMLSLPLHLRKPHLFPELPLPFRETLESYLSKMKKLSTVVFEMLEKSLQLVEIKGMTDLFEDGLQTMRMNYYPPCPRPELVLGLTSHSDFSGLTILLQLNEVEGLQIRKEERWISIKPLPDAFIVNVGDILEIMTNGIYRSVEHRAVVNSTKERLSIATFHDSKLESEIGPISSLVTPETPALFKRGRYEDILKENLSRKLDGKSFLDYMRM
oripavine yield improved relative to WT CODM (thebaine): ~79% | morphine yield improved relative to WT CODM (codeine): ~58% | speed of biotransformation with codeine as substrate (in words) (codeine): faster than the WT CODM control | yield of morphine (codeine; time course, after one hour): ~94%

B9: E259D: codeine 3-O-demethylase with amino acid substitution E259D (protein, listed as Papaver somniferum)
chain: METPILIKLGNGLSIPSVQELAKLTLAEIPSRYTCTGESPLNNIGASVTDDETVPVIDLQNLLSPEPVVGKLELDKLHSACKEWGFFQLVNHGVDALLMDNIKSEIKGFFNLPMNEKTKYGQQDGDFEGFGQPYIESEDQRLDWTEVFSMLSLPLHLRKPHLFPELPLPFRETLESYLSKMKKLSTVVFEMLEKSLQLVEIKGMTDLFEDGLQTMRMNYYPPCPRPELVLGLTSHSDFSGLTILLQLNEVEGLQIRKEDRWISIKPLPDAFIVNVGDILEIMTNGIYRSVEHRAVVNSTKERLSIATFHDSKLESEIGPISSLVTPETPALFKRGRYEDILKENLSRKLDGKSFLDYMRM
oripavine yield improved relative to WT CODM (thebaine): ~38% | morphine yield improved relative to WT CODM (codeine): ~30%

B10: E259G: codeine 3-O-demethylase with amino acid substitution E259G (protein, listed as Papaver somniferum)
chain: METPILIKLGNGLSIPSVQELAKLTLAEIPSRYTCTGESPLNNIGASVTDDETVPVIDLQNLLSPEPVVGKLELDKLHSACKEWGFFQLVNHGVDALLMDNIKSEIKGFFNLPMNEKTKYGQQDGDFEGFGQPYIESEDQRLDWTEVFSMLSLPLHLRKPHLFPELPLPFRETLESYLSKMKKLSTVVFEMLEKSLQLVEIKGMTDLFEDGLQTMRMNYYPPCPRPELVLGLTSHSDFSGLTILLQLNEVEGLQIRKEGRWISIKPLPDAFIVNVGDILEIMTNGIYRSVEHRAVVNSTKERLSIATFHDSKLESEIGPISSLVTPETPALFKRGRYEDILKENLSRKLDGKSFLDYMRM
oripavine yield improved relative to WT CODM (thebaine): ~27% | morphine yield improved relative to WT CODM (codeine): ~24%

B11: T3K: codeine 3-O-demethylase with amino acid substitution T3K (protein, listed as Papaver somniferum)
chain: MEKPILIKLGNGLSIPSVQELAKLTLAEIPSRYTCTGESPLNNIGASVTDDETVPVIDLQNLLSPEPVVGKLELDKLHSACKEWGFFQLVNHGVDALLMDNIKSEIKGFFNLPMNEKTKYGQQDGDFEGFGQPYIESEDQRLDWTEVFSMLSLPLHLRKPHLFPELPLPFRETLESYLSKMKKLSTVVFEMLEKSLQLVEIKGMTDLFEDGLQTMRMNYYPPCPRPELVLGLTSHSDFSGLTILLQLNEVEGLQIRKEERWISIKPLPDAFIVNVGDILEIMTNGIYRSVEHRAVVNSTKERLSIATFHDSKLESEIGPISSLVTPETPALFKRGRYEDILKENLSRKLDGKSFLDYMRM
product yield / performance compared to WT CODM strain (in words) (thebaine; [1]): minor improvement in product yield
